Article PMC3788043 (Journal of the American Society for Mass Spectrometry, 2013)

What was measured:
cross-linking = target: the molecule itself; test: cross-linking
[1] = target: urease apoprotein (UreABC)3 (Klebsiella aerogenes, UniProt P18316 1-100; P18315 1-106; P18314 1-567); test: native MS
Chain of urease apoprotein (UreABC)3 (P18316 whole entry, chain 1 of 3): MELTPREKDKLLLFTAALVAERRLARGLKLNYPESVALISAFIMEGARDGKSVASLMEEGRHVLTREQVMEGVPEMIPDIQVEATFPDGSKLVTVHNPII
Chain of urease apoprotein (UreABC)3 (P18315 whole entry, chain 2 of 3): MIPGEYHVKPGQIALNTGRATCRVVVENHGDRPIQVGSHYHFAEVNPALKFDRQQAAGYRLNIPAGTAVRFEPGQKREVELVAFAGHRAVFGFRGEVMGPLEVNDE
Chain of urease apoprotein (UreABC)3 (P18314 whole entry, chain 3 of 3): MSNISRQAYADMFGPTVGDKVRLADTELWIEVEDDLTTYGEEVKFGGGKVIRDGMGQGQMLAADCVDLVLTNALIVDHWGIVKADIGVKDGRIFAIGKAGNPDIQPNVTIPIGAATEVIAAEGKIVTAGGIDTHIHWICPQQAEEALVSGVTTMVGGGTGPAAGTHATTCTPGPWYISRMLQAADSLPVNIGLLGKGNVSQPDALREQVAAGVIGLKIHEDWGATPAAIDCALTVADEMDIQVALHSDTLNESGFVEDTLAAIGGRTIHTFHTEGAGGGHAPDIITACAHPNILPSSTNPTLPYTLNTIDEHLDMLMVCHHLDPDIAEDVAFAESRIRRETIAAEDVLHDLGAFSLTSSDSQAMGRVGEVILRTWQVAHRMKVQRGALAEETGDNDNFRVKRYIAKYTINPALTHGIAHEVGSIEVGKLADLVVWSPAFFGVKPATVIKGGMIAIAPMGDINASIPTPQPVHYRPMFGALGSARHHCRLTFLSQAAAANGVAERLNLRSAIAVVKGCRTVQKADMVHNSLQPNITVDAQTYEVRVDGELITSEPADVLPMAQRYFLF

Binder	binding result (cross-linking)	binding result [1]
K165A variant of UreF (natural protein) MSTAEQRLRLMQLASSNLPVGGYSWSQGLEWAVEAGWVLDVAAFERWQRRQMTEGFFTVDLPLFARLYRACEQGDIAAAQRWTAYLLACRETRELREEERNRGAAFARLLSDWQPDCPPPWRSLCQQSQLAGMAWLGVRWRIALPEMALSLGYSWIESAVMAGVALVPFGQQAAQQLILRLCDHYAAEMPRALAAPDGDIGSATPLAAIASARHETQYSRLFRS	binds	
maltose binding protein fusion of UreD (MBP-UreD) (natural protein, Klebsiella aerogenes, UniProt Q09063 1-270, looked up) MLPPLKKGWQATLDLRFHQAGGKTVLASAQHVGPLTVQRPFYPEEETCHLYLLHPPGGIVGGDELTISAHLAPGCHTLITMPGASKFYRSSGAQALVRQQLTLAPQATLEWLPQDAIFFPGANARLFTTFHLCASSRLLAWDLLCLGRPVIGETFSHGTLSNRLEVWVDNEPLLVERLHLQEGELSSIAERPWVGTLLCYPATDALLDGVRDALAPLGLYAGASLTDRLLTVRFLSDDNLICQRVMRDVWQFLRPHLTGKSPVLPRIWLT		binds
MBP-UreD:UreF (complex, Klebsiella aerogenes) chain 1: MLPPLKKGWQATLDLRFHQAGGKTVLASAQHVGPLTVQRPFYPEEETCHLYLLHPPGGIVGGDELTISAHLAPGCHTLITMPGASKFYRSSGAQALVRQQLTLAPQATLEWLPQDAIFFPGANARLFTTFHLCASSRLLAWDLLCLGRPVIGETFSHGTLSNRLEVWVDNEPLLVERLHLQEGELSSIAERPWVGTLLCYPATDALLDGVRDALAPLGLYAGASLTDRLLTVRFLSDDNLICQRVMRDVWQFLRPHLTGKSPVLPRIWLT chain 2: MSTAEQRLRLMQLASSNLPVGGYSWSQGLEWAVEAGWVLDVAAFERWQRRQMTEGFFTVDLPLFARLYRACEQGDIAAAQRWTAYLLACRETRELREEERNRGAAFARLLSDWQPDCPPPWRSLCQQSQLAGMAWLGVRWRIALPEMALSLGYSWIESAVMAGVKLVPFGQQAAQQLILRLCDHYAAEMPRALAAPDGDIGSATPLAAIASARHETQYSRLFRS		binds
